Publication PMC5223209, “New insights into the GINS complex explain the controversy between existing structural models” (Scientific Reports, 2017)

Molecular target: the molecule itself
Assay: negative-stain electron microscopy; gel-filtration fractions of the low and the high MW peak stained and visualised by EM

B1: S. cerevisiae GINS complex (complex)
chain 1: MDINIDDILAELDKETTAVDSTKITQGSSSTTHRDANTIVGSSLDLNDKTQIYVSPQQDFSDLMKSWKNERCSPELLPYPHQLMKRLLNRISMQSQLIENISMGFLDMQNASNANPPMPNESKLPLLCMETELERLKFVIRSYIRCRLSKIDKFSLYLRQLNEDENSLISLTDLLSKDEIKYHDTHSLIWLKLVNDSILKYMPEELQAINDTEGSVNMIDEPDWNKFVFIHVNGPPDGKWNEDPLLQENEFGKPCYTVTIPDLKEEVELTIGSIYVMRYEVIRDLLRDDKVALI
chain 2: MYGDLGNKLVLEAKRTKQLYARSNQDVNLPMYHEDIIRNILKEVSNLRKNTEYLKEQQQLGMLDDKVAKCQYFVTLLCMERNKRCLLAYQRLRTDILDSMAWNNNGLDLMSSITFSQQDTNNLSHQEQEYLKEYCDLITDLKSGDLVDIDLSGSLVPPSDVFIDVRVLKDAGEIQTEYGVFNLIKDSQFFVRQSDVERLIQQGYLQKI
chain 3: MSLPAHLQQTFSPEEIQFIVENEPIKIFPRITTRQKIRGDDRGTGNHTRWQLITTDDKALNNMVAMRSTEVVLWIALLLKQQSKCSIVAPQWLTTKELDRKIQYEKTHPDRFSELPWNWLVLARILFNKAKDDFHDPIHELRGKIQDLREIRQIKVLKGLKYLNESHLQLDNLSLLEINELRPFITEIMDKLREIHTASLTAGTENDEEEFNI
chain 4: MGYYDIDDVLADGTEFPCKFQYDIPGLGYLENNPGRPITKNTKLSLPLWLARILAIVGGDEALVDEEPVPFVELLPPDMFSTKVMNAIKTDPVALDLHSINSHFFSLAIKWIMLFSEKELANVVSELLLQRAQELNHHASSLSIDLNADSTGKNSANTNIATSTFLLKLEEMEKEIYKKSHESYKDTKRWMFKK
notes: Sld5 subunit of the S. cerevisiae GINS complex; Psf1 subunit of the S. cerevisiae GINS complex; Psf2 subunit of the S. cerevisiae GINS complex; Psf3 subunit of the S. cerevisiae GINS complex; details may be in the Supplementary Information; also called yeast GINS complex; copies: + + +
**Q.** Does B1 bind?
**A.** binds
